The target of this assay is B/NP_TAIL mut1-YFP, B/NP_TAIL-YFP with point mutations in the positive charge patch of the NLS (influenza B virus B/Memphis/13/03). As to the kind of experiment: SPR.
human importin-α3 without its importin-β binding (IBB) domain (residues 64 to 521), sequence (O00629 64-521): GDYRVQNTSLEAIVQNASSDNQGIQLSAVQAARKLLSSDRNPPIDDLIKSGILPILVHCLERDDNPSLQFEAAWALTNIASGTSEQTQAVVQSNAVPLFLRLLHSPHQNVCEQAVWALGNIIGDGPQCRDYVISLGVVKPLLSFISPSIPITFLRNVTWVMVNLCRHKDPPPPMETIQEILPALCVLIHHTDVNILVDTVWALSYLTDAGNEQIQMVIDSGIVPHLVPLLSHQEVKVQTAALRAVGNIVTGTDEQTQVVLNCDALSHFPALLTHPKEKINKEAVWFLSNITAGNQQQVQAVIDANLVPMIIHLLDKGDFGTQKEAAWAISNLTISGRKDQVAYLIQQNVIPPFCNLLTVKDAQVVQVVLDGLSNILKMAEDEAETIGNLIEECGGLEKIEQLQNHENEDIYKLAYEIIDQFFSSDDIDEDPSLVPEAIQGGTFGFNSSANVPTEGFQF
human importin-α7 without its importin-β binding (IBB) domain (residues 58 to 536), sequence (O60684 58-536): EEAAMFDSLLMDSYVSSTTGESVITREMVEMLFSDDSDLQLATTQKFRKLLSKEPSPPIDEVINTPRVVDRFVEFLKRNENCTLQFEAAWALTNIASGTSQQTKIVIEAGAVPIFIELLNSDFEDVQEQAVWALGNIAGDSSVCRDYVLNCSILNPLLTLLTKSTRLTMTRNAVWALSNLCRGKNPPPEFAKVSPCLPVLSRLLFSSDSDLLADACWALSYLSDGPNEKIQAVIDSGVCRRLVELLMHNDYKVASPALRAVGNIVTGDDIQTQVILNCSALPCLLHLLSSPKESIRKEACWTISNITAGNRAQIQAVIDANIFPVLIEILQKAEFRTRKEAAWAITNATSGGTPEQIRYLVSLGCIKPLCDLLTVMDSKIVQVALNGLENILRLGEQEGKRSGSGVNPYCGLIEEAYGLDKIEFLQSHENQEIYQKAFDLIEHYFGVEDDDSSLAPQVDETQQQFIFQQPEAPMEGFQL
human importin-α5 without its importin-β binding (IBB) domain (residues 66 to 538), sequence (P52294 66-538): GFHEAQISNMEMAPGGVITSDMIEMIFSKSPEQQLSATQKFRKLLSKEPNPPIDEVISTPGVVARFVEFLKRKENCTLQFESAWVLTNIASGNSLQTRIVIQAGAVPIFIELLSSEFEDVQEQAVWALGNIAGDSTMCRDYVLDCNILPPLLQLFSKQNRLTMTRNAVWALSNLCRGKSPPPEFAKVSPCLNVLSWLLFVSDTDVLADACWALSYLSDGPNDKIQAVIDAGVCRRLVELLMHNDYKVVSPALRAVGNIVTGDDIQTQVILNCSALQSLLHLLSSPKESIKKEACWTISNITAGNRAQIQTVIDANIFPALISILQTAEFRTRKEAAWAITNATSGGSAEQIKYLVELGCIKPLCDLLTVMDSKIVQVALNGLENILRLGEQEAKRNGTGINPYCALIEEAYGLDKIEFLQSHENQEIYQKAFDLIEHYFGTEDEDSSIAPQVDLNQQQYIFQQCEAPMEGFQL
On to “human importin-α3 without its importin-β binding (IBB) domain (residues 64 to 521) (from UniProt O00629 64-521) (domain or fragment)”, for which the Kd is greater than 5 µM.

On to “human importin-α5 without its importin-β binding (IBB) domain (residues 66 to 538) (from UniProt P52294 66-538) (domain or fragment)”, for which the Kd is greater than 5 µM.

Turning to “human importin-α7 without its importin-β binding (IBB) domain (residues 58 to 536) (from UniProt O60684 58-536) (domain or fragment)”, the Kd was greater than 5 µM.
